Measured values published in the supplement of paper PMC9170038.

System: MS2 coat protein
Assay: apparent KD of MS2 coat protein; designed switch direction (-1 OFF switch, 1 ON switch): -1; higher = weaker reporter binding
In short: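 Designed RNA switches with common flanks were transcribed on Illumina chips by stalled E. coli RNA polymerase and titrated with SNAP-549-labelled MS2 coat protein, from 0.7 or 1.5 nM doubling to 3 µM, in Tris-HCl pH 7.5 buffer with KCl, MgCl2, BSA, DTT, tRNA and Tween-20. Steps lasted 0.8–1.5 h (lowest) to 10–20 min (highest). Titrations ran without input, with 200 uM small-molecule ligand, or with an oligonucleotide input. Normalised cluster fluorescence was curve-fitted, and apparent KD is the per-design median over clusters.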

[1] = Eterna round: R95, input ligand: microRNA oligo, concentration not stated
[2] = input ligand: microRNA oligo, concentration not stated

| Sequence | apparent KD of MS2 coat protein [1] | apparent KD of MS2 coat protein (input ligand: FMN 200 uM) | apparent KD of MS2 coat protein (input ligand: none) | further results |
| --- | --- | --- | --- | --- |
| ACCUUACAUGAGGAUCACCCAUGUCAGGAUAUCUCGGGCGACCGAGGGCCGGCCGCCCAGAGAAGGGACGAGGA [Aainmaso] (puzzle: Exclusion 1) | 11.8 nM | – | – | – |
| UAUUAGUAAGGAUAUGAGACGUAGGACUAAUGUCCUACGUCUCAGAAGGUACAUGAGGAUCACCCAUGUUUAUU [Mod of Fisker 8 - Jieux - Exclusion 4] (Eterna round: R97, puzzle: Exclusion 4) | – | 23.5 nM | 19.3 nM | – |
| UUUUCUCACGUCAGGAUAUGCUAAAAGGUGACAAGGUAGAAGGGACAUGAGGAUCACCCAUGUGCUUUCAUGAG [Eternabot (L2) Solution 41] (Eterna round: R97, puzzle: Brourd's mod of Exclusion 4) | – | 15.2 nM | 13.8 nM | – |
| AAAUAGUUAGGAUAUACAUGAGGAUCACCCAUGUAGGGUUCCGUCAUGCAGAAAAUGCGUAGAAGGAACUAUCC [EX3 A.22] (Eterna round: R97, puzzle: Exclusion 3) | – | 16.6 nM | 17.6 nM | – |
| AAAUACAAGUAAAGGUUCUACAUGAGGAUCACCCAUGUGCUCGUCUUAUAAAGUACUAUCACGAAAGUGAUAGUACA [Sensor 3, v1 - 39] (puzzle: Sensor v3, turn-off variant 1) | 92.5 nM | – | – | apparent KD of MS2 coat protein (Eterna round: R95, input ligand: FMN 200 uM): 19.2 nM; apparent KD of MS2 coat protein (Eterna round: R95, input ligand: none): 16 nM |
| AUUUGCUCGUCUACUCAAAACAUGAGGAUCACCCAUGUCGGAUUGGAUCCUACCCAGUCAAGACCAUACUCCUCGAC [Eternabot (Original) Solution 39] (Eterna round: R97, puzzle: Sensor, turn-off variant 1) | – | 342 nM | 344 nM | – |
| GGCGAAGUAGGAUAUACAUGAGGAUCACCCAUGUAACCUAUAGGCGAAGAUCUUCUAUGUAGAAGGACUACGCU [jl-ex3-4.40 ViennaUCT mod] (Eterna round: R97, puzzle: Exclusion 3) | – | 15.3 nM | 15.3 nM | – |
| GGUGCGUUUGUGAGGAUAUGCUGGUCCUUGGUUCUGCAGAAGGCACAUGAGGAUCACCCAUGUGGUGUCGUACC [salish99_Bmod_Ex4_042] (puzzle: Brourd's mod of Exclusion 4) | 64.5 nM | – | – | – |
| ACAUGAGGAUCACCCAUGUAAUGAUGGGUACUAUAUUAUUCGUAGGAUAUCGUUGUUAGUUUGUUCGAGAAGGACGAUUGCCUU [JR_ExcNG3_Sub054] (Eterna round: R96, puzzle: Exclusion NG 3) | – | 612 nM | 520 nM | apparent KD of MS2 coat protein [2]: 385 nM |
| CAUGAUUGGCGAGGAUAUUGACCUAGUUGGCGACGAGAAGGCGCCUGUCACAUGAGGAUCACCCAUGUGAAUCUGGUGAAAGAG [Ex NG1 #90] (Eterna round: R96, puzzle: Exclusion NG 1) | – | 23.9 nM | 22.8 nM | apparent KD of MS2 coat protein [2]: 16.1 nM |
| UCGGGAUGAGGAUAUACAUAGAAAUAGAUUCAUGUAAAACUACAUGAGGAUCACCCAUGUAGAAGGCAUUCCGU [Mat - Exclusion 2 - JL Mod - D58] (Eterna round: R97, puzzle: Exclusion 2) | – | 110 nM | 24.2 nM | – |
| UAUUUGCAAGCGAGAUCCCACAUGAGGAUCACCCAUGUGCUCGUCUUAUAAGGUACUGUGACGAAAGUCACGGUACC [Sensor 3, v1 - 91 v26] (Eterna round: R97, puzzle: Sensor, turn-off variant 1) | – | 16.5 nM | 13.7 nM | – |
| GAUUUAGAGCAGGAUAUCAUAGAAUUAUAUGAAUGAGAAGGGCUCACAUGAGGAUCACCCAUGUGGUCCUAGAU [JL Dibiri mod 22] (puzzle: Exclusion 6) | 22.8 nM | – | – | – |
